# From patent US20080267944
# Tested on: prothrombin
substance,measurement,value
recombinant prothrombin activating protease (rLopap),prothrombin activation (thrombin formation followed with S-2238 chromogenic substrate),The native Lopap and the rLopap are able to activate prothrombin using preferentially the S-2238 substrate
same,"prothrombin activation, compared with native Lopap","in same concentrations, rLopap is less efficient"
same,"prothrombin hydrolysis (SDS-PAGE of fragments; prothrombin 10 uM, rLOPAP 2 uM)","Under non-reduced conditions bands of 72 kDa (prothrombin), of 52 kDa probably corresponding to the prothrombin F1.2, one of 36 kDa corresponding to the thrombin or to the prethrombin 2, and one of 24 kDa corresponding to the fragment 1 (F1) of the prothrombin could be observed"
same,prothrombin hydrolysis in presence and absence of Factor Va (SDS-PAGE),The same hydrolysis standards were obtained in presence and in absence of the Factor Va
